Data on one molecule can be found in article PMC2992532, “A tryptophan-rich peptide acts as a transcription activation domain” (BMC Molecular Biology, 2010).

In this assay the target is T1, LexA-TFIIB fusion protein (UniProt P29055 1-345).
T1 sequence (looked up): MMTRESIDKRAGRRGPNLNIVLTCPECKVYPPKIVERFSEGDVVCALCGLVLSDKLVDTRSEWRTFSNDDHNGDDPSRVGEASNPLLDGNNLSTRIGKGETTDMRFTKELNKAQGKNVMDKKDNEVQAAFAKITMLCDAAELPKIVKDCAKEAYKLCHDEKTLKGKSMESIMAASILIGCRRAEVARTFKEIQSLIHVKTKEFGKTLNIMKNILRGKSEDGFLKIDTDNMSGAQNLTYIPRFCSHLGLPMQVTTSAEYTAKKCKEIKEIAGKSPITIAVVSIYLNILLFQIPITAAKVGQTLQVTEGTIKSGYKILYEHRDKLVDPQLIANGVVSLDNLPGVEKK
The assay is described as follows: cell-based or functional assay.

Take WWWWWWW [B42-W7 fusion protein (heptatryptophan, W7)]: the “transcriptional activity (beta-gal reporter) of W7 fused to LexA, relative to the native pentapeptide WYDWW fused to LexA” value was around 3 fold.
